Laboratory results taken from article PMC11416365, “Exploring the manganese-dependent interaction between a transcription factor and its corresponding DNA: insights from gas-phase electrophoresis on a nES GEMMA instrument” (Analytical and Bioanalytical Chemistry, 2024).

Biological target: the molecule itself
Experiment: nES GEMMA (gas-phase electrophoresis, nES DMA); BMntR alone at different concentrations, electrosprayed from 40 mM ammonium acetate pH 8.4; EM diameter 5.9 nm turned into a molecular weight by an EM diameter/MW correlation (34.6 kDa against 33.8 kDa theoretical for the dimer)

B1: MntR protein from B. subtilis (natural protein, Bacillus subtilis, UniProt P54512 1-142, looked up)
chain: MTTPSMEDYIEQIYMLIEEKGYARVSDIAEALAVHPSSVTKMVQKLDKDEYLIYEKYRGLVLTSKGKKIGKRLVYRHELLEQFLRIIGVDEEKIYNDVEGIEHHLSWNSIDRIGDLVQYFEEDDARKKDLKSIQKKTEHHNQ
notes: Manganese-dependent transcription factor MntR of Bacillus subtilis, UniProt P54512; Theoretical mass of the dimer printed as 33.8 kDa; also called BMntR; B. subtilis MntR protein; source: purified as before [3]
stoichiometry N: 2
